Here are results for eleven molecules from patent US20240034757A1 (OXFORD UNIVERSITY INNOVATION, published 2024).

In assay [1] the target is T1, CXCL9_HUMAN (human, UniProt Q07325 23-125).
T1 sequence: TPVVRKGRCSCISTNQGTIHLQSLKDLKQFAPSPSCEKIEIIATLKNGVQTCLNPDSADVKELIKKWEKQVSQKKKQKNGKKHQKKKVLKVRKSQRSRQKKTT
The assay is described as follows: BLI. (BLI is a label-free optical method that tracks binding on a fibre tip over time.)

The target in assay [2] is CXCL12_HUMAN (human, UniProt P48061 22-89). The assay is described as follows: BLI.
Assay [3] concerns the target T2, CXCL14_HUMAN (human, UniProt O95715 35-111).
T2 sequence: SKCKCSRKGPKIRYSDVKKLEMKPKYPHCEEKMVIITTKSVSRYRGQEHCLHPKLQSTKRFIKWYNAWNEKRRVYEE
The assay is described as follows: BLI.

Assay [4] has as its target T3, CXCL7_HUMAN (human, UniProt P02775 59-128).
T3 sequence: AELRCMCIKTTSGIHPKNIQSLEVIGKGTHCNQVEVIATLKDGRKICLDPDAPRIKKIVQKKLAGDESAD
The assay is described as follows: BLI [Cont.].

Assay [5] concerns the target T4, CXCL8_HUMAN (human, UniProt P10145 28-99).
T4 sequence: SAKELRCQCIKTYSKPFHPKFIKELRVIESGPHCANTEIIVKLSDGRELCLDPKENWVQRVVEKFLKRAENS
The assay is described as follows: BLI [Cont.].

Assay [6] deals with T5, CXCL11_HUMAN (human, UniProt O14625 22-94).
T5 sequence: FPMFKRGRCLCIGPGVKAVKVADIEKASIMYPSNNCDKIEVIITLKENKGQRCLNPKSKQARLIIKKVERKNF
The assay is described as follows: yeast surface display FACS re-test.

Assay [7] addresses T6, CXCL10_HUMAN (human, UniProt P02778 22-98).
T6 sequence: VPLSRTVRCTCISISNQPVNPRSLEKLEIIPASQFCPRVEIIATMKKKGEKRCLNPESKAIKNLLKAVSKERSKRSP
The assay is described as follows: yeast surface display FACS re-test.

Assay [8] concerns the target T7, P1243_AMBAM (Amblyomma americanum, UniProt A0A0C9S461 26-123).
T7 sequence: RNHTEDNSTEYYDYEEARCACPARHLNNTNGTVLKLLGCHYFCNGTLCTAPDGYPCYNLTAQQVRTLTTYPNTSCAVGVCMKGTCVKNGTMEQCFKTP
Kind of assay: BLI.

For assay [9], the target named is T8, P672_RHIPU (Rhipicephalus pulchellus, UniProt L7MC74 22-125).
T8 sequence: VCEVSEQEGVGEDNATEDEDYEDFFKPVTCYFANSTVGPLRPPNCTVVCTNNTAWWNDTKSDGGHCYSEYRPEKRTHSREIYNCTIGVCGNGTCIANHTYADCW
Kind of assay: BLI.

The target in assay [10] is T9, P991_AMBCA (Amblyomma cajennense, UniProt A0A023FFD0 29-136).
T9 sequence: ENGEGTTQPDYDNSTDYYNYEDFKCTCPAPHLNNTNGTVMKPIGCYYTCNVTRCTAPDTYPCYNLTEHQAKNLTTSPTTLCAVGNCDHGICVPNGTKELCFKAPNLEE
Kind of assay: BLI.

Assay [11] addresses T7, P1243_AMBAM. Kind of assay: BLI. The source holds these as a separate data set.
The target in assay [12] is T10, P467_RHIPU (Rhipicephalus pulchellus, UniProt L7M8Z8 22-127).
T10 sequence: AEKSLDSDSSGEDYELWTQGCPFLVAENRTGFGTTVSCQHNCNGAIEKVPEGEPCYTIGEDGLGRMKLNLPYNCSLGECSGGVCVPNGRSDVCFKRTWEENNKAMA
Kind of assay: BLI.

In assay [13] the target is T11, P546_AMBCA (Amblyomma cajennense, UniProt A0A023FBW7 22-118).
T11 sequence: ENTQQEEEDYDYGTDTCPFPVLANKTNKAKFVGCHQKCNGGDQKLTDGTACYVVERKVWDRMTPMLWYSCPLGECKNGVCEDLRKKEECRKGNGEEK
Kind of assay: BLI.

The target of assay [14] is T12, P1180_AMBTR (Amblyomma triste, UniProt A0A023G6B6 26-116).
T12 sequence: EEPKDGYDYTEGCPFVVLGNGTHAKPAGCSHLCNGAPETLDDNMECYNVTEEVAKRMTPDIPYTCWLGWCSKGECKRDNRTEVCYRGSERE
Kind of assay: BLI.

Assay [15] has as its target T13, P1181_AMBMA (Amblyomma maculatum, UniProt G3MIX6 26-115).
T13 sequence: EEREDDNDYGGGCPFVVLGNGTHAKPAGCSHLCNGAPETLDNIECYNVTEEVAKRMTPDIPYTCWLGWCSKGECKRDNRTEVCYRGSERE
The assay is described as follows: BLI.

Assay [16] addresses T14, P1183_AMBTR (Amblyomma triste, UniProt A0A023G9N9 26-115).
T14 sequence: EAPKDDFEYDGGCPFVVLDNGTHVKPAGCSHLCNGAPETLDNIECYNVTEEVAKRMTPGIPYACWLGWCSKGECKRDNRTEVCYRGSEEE
Kind of assay: BLI.

Assay [17] has as its target T15, P974_AMBCA (Amblyomma cajennense, UniProt A0A023FDY8 22-118).
T15 sequence: T11 sequence with E8Q, S69E, E88D
Kind of assay: BLI.

In assay [18] the target is T16, P983_AMBCA (Amblyomma cajennense, UniProt A0A023FFB5 22-119).
T16 sequence: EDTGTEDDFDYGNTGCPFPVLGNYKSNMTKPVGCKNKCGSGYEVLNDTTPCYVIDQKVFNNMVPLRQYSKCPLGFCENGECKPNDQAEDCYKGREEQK
Kind of assay: BLI.

In assay [19] the target is T17, P985_AMBPA (Amblyomma parvum, UniProt A0A023FT45 25-132).
T17 sequence: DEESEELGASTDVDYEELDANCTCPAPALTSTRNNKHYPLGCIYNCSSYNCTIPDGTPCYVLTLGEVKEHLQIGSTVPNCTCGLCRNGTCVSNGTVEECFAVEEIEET
The assay is described as follows: BLI.

Assay [20] deals with T18, P1182_AMBMA (Amblyomma maculatum, UniProt G3MJ83 27-115).
T18 sequence: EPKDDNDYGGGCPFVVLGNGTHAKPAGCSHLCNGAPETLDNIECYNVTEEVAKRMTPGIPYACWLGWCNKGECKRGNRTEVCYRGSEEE
Kind of assay: BLI.

Assay [21] deals with T19, CXCL4_HUMAN (human, UniProt P02776 32-101).
T19 sequence: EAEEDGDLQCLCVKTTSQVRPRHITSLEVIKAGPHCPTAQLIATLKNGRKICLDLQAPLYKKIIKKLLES
Kind of assay: BLI [Cont.].

The term Kd denotes the concentration at which binding is half-saturated.

Changes are numbered by the printed parent chain. Like-named read-outs stand apart in the source and are kept apart here.

CXCL12_HUMAN, sequence (P48061 22-89 limits assumed): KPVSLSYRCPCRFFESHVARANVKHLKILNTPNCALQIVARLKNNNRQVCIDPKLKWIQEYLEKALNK

B1: P675_IXORI (other)
chain: GSNQLSGPQSSANSNDAVFCDTNCTQGTDGAWSGCRGDCFCVHVGNSTEGRCIELIGDFDYSTPGAED
For B1, the binding result in assay [1], in assay [2], in assay [3], in assay [4] and in [5] was “no binding (tested: 300 nM)” in each case. Besides, the “% cells over threshold fluorescence” value in assay [6] came to 55%.

B2: P1101_IXORI (other)
chain: HTTVAGSDEDIEVSYCGMNCTVESGKSSKCSPDCVCVHEGNERDGICISITYLGDLGNPLEDPSIDLATPLAPVFQSSK
Regarding B2, the “% cells over threshold fluorescence” value in [7] was 75%.

B3: CCL15_HUMAN (ligand)
chain: QFTNDAETELMMSKLPLENPVVLNSFHFAADCCTSYISQSIPCSLMKSYFETSSECSKPGVIFLTKKGRQVCAKPSGPGVQDCMKKLKPYSI
Regarding B3, the Kd in [8] came out at 9.61 nM; in [9], 32 nM; in assay [10], 159 nM; in [11], 9.61 nM.

B4: CCL7_HUMAN (ligand)
chain: not shown
Take B4: the Kd was determined as 2.15 nM in assay [12]; 90 nM in assay [13]; 98 nM in assay [14]; 120 nM in assay [15]; 5.4 nM in assay [16]; 8.66 nM in [8]. Also, the Kd in [9] stood at 16 nM; in [17], 41.2 nM; in [18] it was 32 nM; in assay [19], 61 nM; in [10], 0.514 nM; in [11], 8.66 nM.

B5: P1074_IXORI (other)
chain: GSKESSAHQSSDDSIKAEFCDAKCTMKTDGKWTQCHGGCFCVHVGNETEGRCMRLDGDYDYPSTQPEE
For B5, the binding result in [2], in [3], in [4] and in [5] was “no binding (tested: 300 nM)” each time. In addition, the “% cells over threshold fluorescence” value in assay [7] was 71%; in assay [6], 33%.

B6: CCL16_HUMAN (ligand)
chain: QPKVPEWVNTPSTCCLKYYEKVLPRRLVVGYRKALNCHLPAIIFVTKRNREVCTNPNDDWVQEYIKDPNLPLLPTRNLSTVKIITAKNGQPQLLNSQ
Turning to B6, the Kd in assay [12] was 14.1 nM; in assay [8], 0.926 nM; in assay [9] it was 3.3 nM; in [19] it was 45 nM; in assay [10], 1.28 nM; in [11], 0.925 nM.

B7: P942_IXORI (other)
chain: NQLSGPQSSANSNEAVFCDTNCTQGTDEAWSGCRGDCFCVYVGNSTEGRCMMLSGDFDYSTPGAED
Regarding B7, the binding result in assay [1], in assay [2], in [3], in [4] and in assay [5] was “no binding (tested: 300 nM)” in each case. In addition, the “% cells over threshold fluorescence” value in assay [6] was determined as 37%.

B8: CCL4_HUMAN (ligand)
chain: APMGSDPPTACCFSYTARKLPRNFVVDYYETSSLCSQPAVVFQTKRSKQVCADPSESWVQEYVYDLELN
On to B8, for which the Kd in assay [12] worked out at 13.6 nM; in assay [13], 27 nM; in assay [14] it was 66 nM; in [15], 53 nM; in [20], 63 nM; in assay [16] it was 78 nM. Further, the Kd in [8] was determined as 15.3 nM; in assay [17] it was 30.2 nM; in assay [18], 8 nM; in assay [19], 46 nM; in assay [10], 5.82 nM; in assay [11] it was 15.3 nM.

B9: P1080_IXORI (other)
chain: SAGSKGSSAPQSSGDSVVAEFCDTNCTMKKDGKWTECNGDCFCVHVGNETVGRCMRLDGDYDYTSSKTTRRNKKTRNGLCRLDRNRTTVDYPERNTREP
For the molecule B9, the “% cells over threshold fluorescence” value in [7] came out at 70%; in assay [6], 45%.

B10: CCL3_HUMAN (ligand)
chain: SLAADTPTACCFSYTSRQIPQNFIADYFETSSQCSKPGVIFLTKRSRQVCADPSEEWVQKYVSDLELSA
With B10, the Kd in assay [12] amounted to 0.363 nM; in assay [13], 15 nM; in [14], 1.1 nM; in [15] it was 2.2 nM; in [20] it was 5.4 nM; in [8], 5.3 nM. The Kd was 2.6 nM in assay [9]; 7.97 nM in [17]; 3.5 nM in assay [18]; 8.9 nM in assay [19]; 1.08 nM in assay [10]; 5.3 nM in assay [11].

B11: P1078_IXORI (other)
chain: GSKGSSAQQSSHDSIKAEFCETNCTMKTGGKWTQCHGGCFCVHVGNETVGRCIKLDGDYDYPSSKHEE
On to B11, for which the binding result in assay [1], in [2], in [3], in assay [4], in assay [5] and in assay [21] was “no binding (tested: 300 nM)” each time. Further, the “% cells over threshold fluorescence” value in assay [6] was 38%.
